Values of other authors, collected in publication PMC12669185.

Target: CCR2 (Homo sapiens) (UniProt P41597)
Sequence of UniProt P41597 (P41597 whole entry): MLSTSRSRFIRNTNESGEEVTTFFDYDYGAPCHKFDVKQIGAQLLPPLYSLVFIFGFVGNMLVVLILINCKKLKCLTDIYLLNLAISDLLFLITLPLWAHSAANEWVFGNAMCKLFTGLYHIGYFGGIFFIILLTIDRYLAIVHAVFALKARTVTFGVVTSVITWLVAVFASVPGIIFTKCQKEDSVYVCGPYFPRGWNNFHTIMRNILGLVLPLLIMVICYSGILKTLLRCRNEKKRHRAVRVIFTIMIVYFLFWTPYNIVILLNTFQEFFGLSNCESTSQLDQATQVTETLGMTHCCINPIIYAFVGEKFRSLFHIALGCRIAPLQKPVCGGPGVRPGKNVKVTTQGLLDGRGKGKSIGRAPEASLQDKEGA

In the case of CCL2 (from UniProt P13500), the Kd is listed as 0.77 nM.
